# Laboratory results: patent publication US20140213531A1 (POLYPHOR, published 2014)
# T1: CathepsinG, from human neutrophils (human, UniProt P08311 21-244)
# T1 sequence (looked up): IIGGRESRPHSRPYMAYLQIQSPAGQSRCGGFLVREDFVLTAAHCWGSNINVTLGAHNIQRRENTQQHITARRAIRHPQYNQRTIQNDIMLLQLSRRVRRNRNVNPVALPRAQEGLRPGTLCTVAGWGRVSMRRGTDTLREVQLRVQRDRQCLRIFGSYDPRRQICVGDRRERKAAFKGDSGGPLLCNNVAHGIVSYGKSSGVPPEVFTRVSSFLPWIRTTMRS
# T2: Chymase, from human skin (human, UniProt P23946 22-247)
# T2 sequence (looked up): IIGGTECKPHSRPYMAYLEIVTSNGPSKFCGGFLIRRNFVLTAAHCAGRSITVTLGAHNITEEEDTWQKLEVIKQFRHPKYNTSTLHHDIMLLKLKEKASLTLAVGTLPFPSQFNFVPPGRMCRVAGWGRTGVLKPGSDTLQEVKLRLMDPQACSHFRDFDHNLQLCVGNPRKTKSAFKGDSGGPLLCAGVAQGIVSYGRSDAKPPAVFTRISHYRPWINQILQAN
# T3: Elastase from human neutrophils (human, UniProt P08246 30-247, limits assumed)
# T3 sequence (looked up): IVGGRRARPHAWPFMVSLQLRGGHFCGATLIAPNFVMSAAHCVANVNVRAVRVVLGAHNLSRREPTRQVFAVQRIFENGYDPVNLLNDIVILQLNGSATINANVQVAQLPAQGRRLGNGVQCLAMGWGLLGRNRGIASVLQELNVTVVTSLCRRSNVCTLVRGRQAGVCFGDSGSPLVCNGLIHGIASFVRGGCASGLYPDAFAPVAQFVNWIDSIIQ
# B1: Example 23 (peptide)
# peptide: FCTXSDPPICY
# HELM: PEPTIDE1{F.C.T.[Nle].S.D.P.P.I.C.Y.[dP].P}$PEPTIDE1,PEPTIDE1,2:R3-10:R3|PEPTIDE1,PEPTIDE1,1:R1-13:R2$$$V2.0
# SMILES: CCCC[C@@H]1NC(=O)[C@H]([C@@H](C)O)NC(=O)[C@@H]2CSSC[C@H](NC(=O)[C@H]([C@@H](C)CC)NC(=O)[C@@H]3CCCN3C(=O)[C@@H]3CCCN3C(=O)[C@H](CC(=O)O)NC(=O)[C@H](CO)NC1=O)C(=O)N[C@@H](Cc1ccc(O)cc1)C(=O)N1CCC[C@@H]1C(=O)N1CCC[C@H]1C(=O)N[C@@H](Cc1ccccc1)C(=O)N2
# B2: Example 60 (peptide)
# peptide: FCTXSDPPICY
# HELM: PEPTIDE1{F.C.T.[Nle].S.D.P.P.I.C.Y.[dP].P}$PEPTIDE1,PEPTIDE1,2:R3-10:R3|PEPTIDE1,PEPTIDE1,1:R1-13:R2$$$V2.0
# SMILES: CCCC[C@@H]1NC(=O)[C@H]([C@@H](C)O)NC(=O)[C@@H]2CSSC[C@H](NC(=O)[C@H]([C@@H](C)CC)NC(=O)[C@@H]3CCCN3C(=O)[C@@H]3CCCN3C(=O)[C@H](CC(=O)O)NC(=O)[C@H](CO)NC1=O)C(=O)N[C@@H](Cc1ccc(O)cc1)C(=O)N1CCC[C@@H]1C(=O)N1CCC[C@H]1C(=O)N[C@@H](Cc1ccccc1)C(=O)N2
# B3: Example 82 (peptide)
# peptide: XCTASXPPQCY
# HELM: PEPTIDE1{[Nle].C.T.A.S.[Cha].P.P.Q.C.Y.[dP].P}$PEPTIDE1,PEPTIDE1,2:R3-10:R3|PEPTIDE1,PEPTIDE1,1:R1-13:R2$$$V2.0
# SMILES: CCCC[C@@H]1NC(=O)[C@@H]2CCCN2C(=O)[C@H]2CCCN2C(=O)[C@H](Cc2ccc(O)cc2)NC(=O)[C@@H]2CSSC[C@H](NC1=O)C(=O)N[C@@H]([C@@H](C)O)C(=O)N[C@@H](C)C(=O)N[C@@H](CO)C(=O)N[C@@H](CC1CCCCC1)C(=O)N1CCC[C@H]1C(=O)N1CCC[C@H]1C(=O)N[C@@H](CCC(N)=O)C(=O)N2
# B4: Example 58 (peptide)
# peptide: ICTKSDPPXCR
# HELM: PEPTIDE1{I.C.T.K.S.D.P.P.[Cha].C.R.[dP].P}$PEPTIDE1,PEPTIDE1,2:R3-10:R3|PEPTIDE1,PEPTIDE1,1:R1-13:R2$$$V2.0
# SMILES: CC[C@H](C)[C@@H]1NC(=O)[C@@H]2CCCN2C(=O)[C@H]2CCCN2C(=O)[C@H](CCCNC(=N)N)NC(=O)[C@@H]2CSSC[C@H](NC1=O)C(=O)N[C@@H]([C@@H](C)O)C(=O)N[C@@H](CCCCN)C(=O)N[C@@H](CO)C(=O)N[C@@H](CC(=O)O)C(=O)N1CCC[C@H]1C(=O)N1CCC[C@H]1C(=O)N[C@@H](CC1CCCCC1)C(=O)N2
# B5: Example 19 (peptide)
# peptide: ICTKSDPPXCR
# HELM: PEPTIDE1{I.C.T.K.S.D.P.P.[Nle].C.R.[dP].P}$PEPTIDE1,PEPTIDE1,2:R3-10:R3|PEPTIDE1,PEPTIDE1,1:R1-13:R2$$$V2.0
# SMILES: CCCC[C@@H]1NC(=O)[C@@H]2CCCN2C(=O)[C@@H]2CCCN2C(=O)[C@H](CC(=O)O)NC(=O)[C@H](CO)NC(=O)[C@H](CCCCN)NC(=O)[C@H]([C@@H](C)O)NC(=O)[C@@H]2CSSC[C@H](NC1=O)C(=O)N[C@@H](CCCNC(=N)N)C(=O)N1CCC[C@@H]1C(=O)N1CCC[C@H]1C(=O)N[C@@H]([C@@H](C)CC)C(=O)N2
# B6: Example 20 (peptide)
# peptide: ICTKSDPPXCR
# HELM: PEPTIDE1{I.C.T.K.S.D.P.P.[Cha].C.R.[dP].P}$PEPTIDE1,PEPTIDE1,2:R3-10:R3|PEPTIDE1,PEPTIDE1,1:R1-13:R2$$$V2.0
# SMILES: CC[C@H](C)[C@@H]1NC(=O)[C@@H]2CCCN2C(=O)[C@H]2CCCN2C(=O)[C@H](CCCNC(=N)N)NC(=O)[C@@H]2CSSC[C@H](NC1=O)C(=O)N[C@@H]([C@@H](C)O)C(=O)N[C@@H](CCCCN)C(=O)N[C@@H](CO)C(=O)N[C@@H](CC(=O)O)C(=O)N1CCC[C@H]1C(=O)N1CCC[C@H]1C(=O)N[C@@H](CC1CCCCC1)C(=O)N2
# B7: Example 57 (peptide)
# peptide: ICTKSDPPXCR
# HELM: PEPTIDE1{I.C.T.K.S.D.P.P.[Nle].C.R.[dP].P}$PEPTIDE1,PEPTIDE1,2:R3-10:R3|PEPTIDE1,PEPTIDE1,1:R1-13:R2$$$V2.0
# SMILES: CCCC[C@@H]1NC(=O)[C@@H]2CCCN2C(=O)[C@@H]2CCCN2C(=O)[C@H](CC(=O)O)NC(=O)[C@H](CO)NC(=O)[C@H](CCCCN)NC(=O)[C@H]([C@@H](C)O)NC(=O)[C@@H]2CSSC[C@H](NC1=O)C(=O)N[C@@H](CCCNC(=N)N)C(=O)N1CCC[C@@H]1C(=O)N1CCC[C@H]1C(=O)N[C@@H]([C@@H](C)CC)C(=O)N2
# B8: Example 30 (peptide)
# peptide: XCTKSDPPICY
# HELM: PEPTIDE1{[O=C([C@H](CCc1ccccc1)N[*:1])[*:2]].C.T.K.S.D.P.P.I.C.Y.[dP].P}$PEPTIDE1,PEPTIDE1,2:R3-10:R3|PEPTIDE1,PEPTIDE1,1:R1-13:R2$$$V2.0
# SMILES: CC[C@H](C)[C@@H]1NC(=O)[C@@H]2CCCN2C(=O)[C@@H]2CCCN2C(=O)[C@H](CC(=O)O)NC(=O)[C@H](CO)NC(=O)[C@H](CCCCN)NC(=O)[C@H]([C@@H](C)O)NC(=O)[C@@H]2CSSC[C@H](NC1=O)C(=O)N[C@@H](Cc1ccc(O)cc1)C(=O)N1CCC[C@@H]1C(=O)N1CCC[C@H]1C(=O)N[C@@H](CCc1ccccc1)C(=O)N2
# B9: Example 81 (peptide)
# peptide: XCTASXPPQCY
# HELM: PEPTIDE1{[Nle].C.T.A.S.[CCCCCCCC[C@H](N[*:1])C(=O)[*:2]].P.P.Q.C.Y.[dP].P}$PEPTIDE1,PEPTIDE1,2:R3-10:R3|PEPTIDE1,PEPTIDE1,1:R1-13:R2$$$V2.0
# SMILES: CCCCCCCC[C@@H]1NC(=O)[C@H](CO)NC(=O)[C@H](C)NC(=O)[C@H]([C@@H](C)O)NC(=O)[C@@H]2CSSC[C@H](NC(=O)[C@H](CCC(N)=O)NC(=O)[C@@H]3CCCN3C(=O)[C@@H]3CCCN3C1=O)C(=O)N[C@@H](Cc1ccc(O)cc1)C(=O)N1CCC[C@@H]1C(=O)N1CCC[C@H]1C(=O)N[C@@H](CCCC)C(=O)N2
# Target: Chymotrypsin, from human pancreas (human, UniProt P17538 19-263)
# Sequence (P17538 19-263): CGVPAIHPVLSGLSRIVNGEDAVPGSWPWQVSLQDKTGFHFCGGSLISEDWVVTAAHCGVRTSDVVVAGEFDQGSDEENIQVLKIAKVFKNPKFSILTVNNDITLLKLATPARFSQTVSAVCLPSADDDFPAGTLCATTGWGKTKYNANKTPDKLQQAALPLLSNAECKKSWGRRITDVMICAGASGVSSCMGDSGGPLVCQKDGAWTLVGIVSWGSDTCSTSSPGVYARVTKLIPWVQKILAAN
# Assay: cell-based or functional assay
row,Binder,% inhibition at 100 µM [%]
1,B1,4
2,B2,4
3,B3,72.9
4,B4,0
5,B5,0
6,B6,0
7,B7,0
8,B8,49

# Target: Tryptase, from human lung (human, UniProt Q15661 31-275, limits assumed)
# Sequence (Q15661 31-275 limits assumed): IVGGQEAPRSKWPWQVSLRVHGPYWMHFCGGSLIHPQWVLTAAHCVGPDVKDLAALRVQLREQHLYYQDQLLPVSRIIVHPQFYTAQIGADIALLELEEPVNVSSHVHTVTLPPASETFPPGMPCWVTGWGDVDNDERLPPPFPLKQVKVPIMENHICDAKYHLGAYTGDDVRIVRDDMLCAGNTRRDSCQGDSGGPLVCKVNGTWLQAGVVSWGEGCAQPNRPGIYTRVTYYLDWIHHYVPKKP
# Assay: cell-based or functional assay
row,Binder,% inhibition at 100 µM [%]
1,B3,44.5

# Target: Thrombin, from Human Plasma, high activity (human, UniProt P00734 328-622)
# Assay: cell-based or functional assay
row,Binder,% inhibition at 100 µM [%]
1,B1,0
2,B2,0
3,B9,13.1
4,B4,28
5,B5,11
6,B6,28
7,B7,11
8,B8,2

# Target: Urokinase from human urine (human, UniProt P00749 21-431, limits assumed)
# Assay: cell-based or functional assay
row,Binder,% inhibition at 100 µM [%]
1,B1,9
2,B2,9
3,B4,6.7
4,B5,4
5,B6,6.7
6,B7,4
7,B8,9

# Target: Coagulation Factor Xa, from human plasma (human, UniProt P00742 41-488, limits assumed)
# Sequence (P00742 41-488 limits assumed): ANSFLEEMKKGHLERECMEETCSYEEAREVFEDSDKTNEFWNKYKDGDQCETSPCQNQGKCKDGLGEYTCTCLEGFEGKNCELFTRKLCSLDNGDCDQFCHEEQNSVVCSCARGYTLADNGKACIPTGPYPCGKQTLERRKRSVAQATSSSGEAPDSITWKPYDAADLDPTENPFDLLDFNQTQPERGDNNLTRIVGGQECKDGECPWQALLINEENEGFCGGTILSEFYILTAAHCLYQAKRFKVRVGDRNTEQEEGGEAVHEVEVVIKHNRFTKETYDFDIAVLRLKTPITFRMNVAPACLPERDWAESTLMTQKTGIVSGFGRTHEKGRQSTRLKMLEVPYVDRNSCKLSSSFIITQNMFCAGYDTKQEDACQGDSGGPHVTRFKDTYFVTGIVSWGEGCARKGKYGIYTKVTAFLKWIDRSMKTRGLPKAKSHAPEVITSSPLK
# Assay: cell-based or functional assay
row,Binder,% inhibition at 100 µM [%]
1,B1,11
2,B2,11
3,B9,8.7
4,B3,15.3
5,B4,25
6,B5,32
7,B6,25
8,B7,32
9,B8,3

# Target: T1, CathepsinG, from human neutrophils
# Assay: cell-based or functional assay
Binder,IC50 [nmol],% inhibition at 100 µM [%]
B1,38,
B2,38,
B9,,61.3
B4,47.5,
B5,41,
B6,48,
B7,41,
B8,39,

# Target: Trypsin, Iodination grade, from human pancreas (human, UniProt P07477 24-247)
# Assay: cell-based or functional assay
row,Binder,% inhibition at 100 µM [%]
1,B1,90
2,B2,90
3,B4,97
4,B5,94
5,B6,97
6,B7,94
7,B8,98

# Target: T2, Chymase, from human skin
# Assay: cell-based or functional assay
row,Binder,% inhibition at 100 µM [%]
1,B1,60
2,B2,60
3,B4,44.1
4,B5,26.9
5,B6,44.1
6,B7,26.9
7,B8,0

# Target: T3, Elastase from human neutrophils
# Assay: cell-based or functional assay
row,Binder,IC50 [nmol]
1,B1,> 100000
2,B2,> 100000
3,B9,28
4,B3,18
5,B4,> 100000
6,B5,> 100000
7,B6,> 100000
8,B7,> 100000
9,B8,49900
